Tests used:
[1] = target: extracellular domain of IL-13-RA2 human recombinant receptor protein (human) (UniProt Q14627); experiment: ELISA
[2] = target: DT390-IL-13 single-chain fusion cytotoxin (monomer) (Corynebacterium diphtheriae | not stated); experiment: SEC-MALS; SEC-MALS-DLS, Superose 6 Increase 10/300 GL, 4 °C, PBS pH 7.4

Sequence of UniProt Q14627 (Q14627 27-343): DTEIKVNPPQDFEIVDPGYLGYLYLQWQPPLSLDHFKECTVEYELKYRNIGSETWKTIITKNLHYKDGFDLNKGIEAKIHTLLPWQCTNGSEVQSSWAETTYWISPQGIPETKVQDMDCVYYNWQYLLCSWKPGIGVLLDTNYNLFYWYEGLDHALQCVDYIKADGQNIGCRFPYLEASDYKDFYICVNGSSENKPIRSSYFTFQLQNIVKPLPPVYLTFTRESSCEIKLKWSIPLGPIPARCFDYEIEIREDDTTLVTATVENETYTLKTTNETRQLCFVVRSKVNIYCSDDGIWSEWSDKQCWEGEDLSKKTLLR

DT390-IL-13 single-chain fusion cytotoxin (monomer)
EC50 [1]: 1.9 nM | Kd [1]: 0.0674 nM | stoichiometry N [2]: 2

DT390-IL-13 single-chain fusion cytotoxin, dimer (complex)
EC50 [1]: 6.4 nM

DT390-IL-13 single-chain fusion cytotoxin, oligomers (complex)
EC50 [1]: 6.8 nM

From publication PMC9406121
